Experimental data from the supplement of paper PMC10724198.
± gives the standard deviation of the averaged measurements.

System: Saccharomyces cerevisiae
Experiment: protein stability index of tFT-peptide fusion (C-terminal peptide) (PSI (0-1 scale)); higher = more stable (slower turnover)
Details: temperature: 30 C
Method: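 MPS profiling in S. cerevisiae of the yeast C-terminome library: the last 12 aa of each annotated ORF are fused to the C-terminus of a sfGFP-mCherry timer, after a GGGS linker. Cells are FACS-sorted into 8 mCherry/sfGFP bins and deep-sequenced. PSI runs from 0 (unstable) to 1 (stable); wild type and das1Δ backgrounds, two technical replicates each.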

[1] = genetic background: das1 deletion

Row | Sequence | protein stability index [1] | protein stability index (genetic background: wild type)
1 | AMDHKFFKTKFE [CKA2 C-terminal 12 aa] | 0.68817 ± 0.00016 | 0.708 ± 0.025
2 | QAKEVFDKMQKE [FMP23 C-terminal 12 aa] | 0.7133 ± 0.0026 | 0.686 ± 0.065
3 | TPSSVQSSPKRA [ZRG8 C-terminal 12 aa] | 0.696 ± 0.017 | 0.668 ± 0.0075
4 | SRKHTTRSGGRW [HOS3 C-terminal 12 aa] | 0.695 ± 0.017 | 0.6554 ± 0.00091
5 | FYNIHDERIREQ [YKL162C-A C-terminal 12 aa] | 0.746 ± 0.013 | 0.657 ± 0.078
6 | TVVDARIDGRGK [PHB2 C-terminal 12 aa] | 0.6724 ± 0.0014 | 0.708 ± 0.045
7 | REWASNTVKKEK [EMC5 C-terminal 12 aa] | 0.698 ± 0.013 | 0.692 ± 0.024
8 | VKWKVLCDLGWT [YIL047C-A C-terminal 12 aa] | 0.715 ± 0.023 | 0.708 ± 0.028
9 | WGSIGQKLRRSA [YOL118C C-terminal 12 aa] | 0.704 ± 0.012 | 0.728 ± 0.015
10 | RAEVAALAAENK [PFK1 C-terminal 12 aa] | 0.6903 ± 0.0045 | 0.6608 ± 0.0054
11 | SLIDAKTGLPKE [MVD1 C-terminal 12 aa] | 0.6964 ± 0.004 | 0.706 ± 0.042
12 | FRALAELYNLVL [GAS5 C-terminal 12 aa] | 0.701 ± 0.02 | 0.681 ± 0.013
13 | KQKKQQAQPLRK [VRG4 C-terminal 12 aa] | 0.704 ± 0.012 | 0.673 ± 0.026
14 | LSDASYDTYELV [SPG5 C-terminal 12 aa] | 0.703 ± 0.011 | 0.743 ± 0.01
15 | NLMVADDKVWRV [MCM3 C-terminal 12 aa] | 0.696 ± 0.017 | 0.7005 ± 0.0019
16 | CAVDAIFYWLLM [GMC1 C-terminal 12 aa] | 0.652 ± 0.026 | 0.486 ± 0.026
17 | LLLTILLFYPPY [YBL109W C-terminal 12 aa] | 0.296 ± 0.011 | 0.318 ± 0.022
18 | PTYDNNRHYGND [YFL032W C-terminal 12 aa] | 0.671 ± 0.0083 | 0.702 ± 0.018
19 | LRKAAANNCIQF [SUA5 C-terminal 12 aa] | 0.7215 ± 0.0026 | 0.7134 ± 0.0016
20 | LTARKVNALRHR [KNH1 C-terminal 12 aa] | 0.694 ± 0.028 | 0.694 ± 0.048
21 | IVSFLSDETKSP [ECM18 C-terminal 12 aa] | 0.7282 ± 0.0009 | 0.714 ± 0.011

Row | Sequence | protein stability index [1] | protein stability index (genetic background: wild type)
22 | PFPLPSTERVIF [ADY2 C-terminal 12 aa] | 0.723 ± 0.02 | 0.73 ± 0.023
23 | WRRSKSISTHLR [YLR366W C-terminal 12 aa] | 0.711 ± 0.0074 | 0.681 ± 0.034
24 | LAKLINKSCVFK [YKL069W C-terminal 12 aa] | 0.7 ± 0.023 | 0.642 ± 0.029
25 | SSKKTIQEEIYI [DPB2 C-terminal 12 aa] | 0.698 ± 0.015 | 0.741 ± 0.056
26 | AFSSNDLLTVHL [BRE1 C-terminal 12 aa] | 0.698 ± 0.036 | 0.673 ± 0.011
27 | KYEPTQEIIEDI [ITR1 C-terminal 12 aa] | 0.693 ± 0.036 | 0.702 ± 0.048
28 | SYRLGKNAAEGK [CAP1 C-terminal 12 aa] | 0.685 ± 0.017 | 0.663 ± 0.025
29 | KLDIPVSFLLAA [YBL053W C-terminal 12 aa] | 0.443 ± 0.0065 | 0.467 ± 0.044
30 | PMALFGIFAVAL [AFB1 C-terminal 12 aa] | 0.5769 ± 0.0038 | 0.596 ± 0.0014
31 | HDELKYPVDMVI [PDR17 C-terminal 12 aa] | 0.705 ± 0.022 | 0.757 ± 0.058
32 | QRDFLLFYNAIM [CDC36 C-terminal 12 aa] | 0.687 ± 0.012 | 0.533 ± 0.075
33 | TLLNAQKEALKK [APT1 C-terminal 12 aa] | 0.6698 ± 0.0014 | 0.684 ± 0.03
34 | VSGKKFQNVRVL [YPL247C C-terminal 12 aa] | 0.705 ± 0.01 | 0.676 ± 0.04
35 | SSVVSRVSRSCR [YAR060C C-terminal 12 aa] | 0.7343 ± 0.0019 | 0.668 ± 0.043
36 | RELTDLFGYKLG [SLM4 C-terminal 12 aa] | 0.708 ± 0.015 | 0.677 ± 0.02
37 | EQITSSLQEASE [FSH1 C-terminal 12 aa] | 0.67 ± 0.016 | 0.656 ± 0.0082
38 | ILMNEFAFNPKV [LEU3 C-terminal 12 aa] | 0.728 ± 0.027 | 0.708 ± 0.044
39 | FVRKIYSSIKVD [EMP70 C-terminal 12 aa] | 0.665 ± 0.025 | 0.614 ± 0.04
40 | ELFTIISRIIED [TSL1 C-terminal 12 aa] | 0.702 ± 0.016 | 0.711 ± 0.046
41 | LNWVFSFYSCSE [YIL163C C-terminal 12 aa] | 0.6796 ± 0.0049 | 0.688 ± 0.019
42 | RRQSLPKRFPLI [YAR035C-A C-terminal 12 aa] | 0.717 ± 0.014 | 0.697 ± 0.022

Row | Sequence | protein stability index [1] | protein stability index (genetic background: wild type)
43 | YDYLINNKTIFD [POF1 C-terminal 12 aa] | 0.722 ± 0.022 | 0.736 ± 0.022
44 | YPVDKEGDIVLE [THP2 C-terminal 12 aa] | 0.679 ± 0.0084 | 0.662 ± 0.039
45 | DLKKLIWNEIFS [FUS3 C-terminal 12 aa] | 0.707 ± 0.021 | 0.684 ± 0.027
46 | YKAVSVSANSPE [SOG2 C-terminal 12 aa] | 0.689 ± 0.016 | 0.673 ± 0.032
47 | RPFEIASFRLYF [AMS1 C-terminal 12 aa] | 0.703 ± 0.026 | 0.683 ± 0.016
48 | VGITSVGTRGNY [YNL140C C-terminal 12 aa] | 0.674 ± 0.015 | 0.717 ± 0.097
49 | LRNQSPFTSSNE [YKL107W C-terminal 12 aa] | 0.695 ± 0.02 | 0.682 ± 0.029
50 | ISTLKAIYNKMD [PEX9 C-terminal 12 aa] | 0.69065 ± 0.0004 | 0.672 ± 0.009
51 | DDTVQFMRRALE [EAF5 C-terminal 12 aa] | 0.665 ± 0.045 | 0.719 ± 0.044
52 | LSIFGFDMFNRK [YMR1 C-terminal 12 aa] | 0.706 ± 0.046 | 0.703 ± 0.028
53 | DVHSKIEKQLGI [UMP1 C-terminal 12 aa] | 0.7202 ± 0.0061 | 0.697 ± 0.017
54 | GRVHGEEDPTKK [HSP12 C-terminal 12 aa] | 0.707 ± 0.024 | 0.6953 ± 0.0032
55 | ALPTYTMEYLDI [UTP8 C-terminal 12 aa] | 0.72 ± 0.032 | 0.698 ± 0.035
56 | PLRLLIRPVGEL [YOR248W C-terminal 12 aa] | 0.679 ± 0.008 | 0.673 ± 0.042
57 | DSFVEFWGRILY [PUL4 C-terminal 12 aa] | 0.704 ± 0.033 | 0.6623 ± 0.0034
58 | FKITTEHGTTQQ [CRT10 C-terminal 12 aa] | 0.675 ± 0.0095 | 0.685 ± 0.031
59 | KLYNYLLSIEVY [YLR123C C-terminal 12 aa] | 0.144 ± 0.013 | 0.191 ± 0.0098
60 | CCGSVLLWCLVV [YLR437C-A C-terminal 12 aa] | 0.4309 ± 0.0019 | 0.27 ± 0.0046
61 | ELEELLEPILAN [GRX1 C-terminal 12 aa] | 0.406 ± 0.028 | 0.4708 ± 0.00077
